Assay: yeast display, Sf9 membrane polyspecificity reagent, FACS + sequencing; frameworks hold sequencing errors
In short: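 Galactose induction of a Saccharomyces cerevisiae BJ5465 synthetic nanobody display library ran 36–48 hours. The cells were then stained for 1 hour at 4 °C with 10% biotinylated, detergent-solubilized Sf9 membrane reagent, pulled down on streptavidin microbeads and FACS-sorted into low and high (top ~1%) gates on expression and reagent-binding fluorescence. Labels for polyreactivity follow the gate of origin.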

Sequence | polyreactivity (PSR sort gate)
QVQLVESGGGLVQAGGSLRLSCAASGSTFPGYAMGWYRQAPGKERELVAAISTSGGRTYYADSVKGRFTISRDNAKNTVYLQMNSLKPEDTAVYYCAADASTWYTEEYWGQGTQVTVSS | low polyreactivity
QVQLVESGGGLVQAGGSLRLSCAASGSTFPIYAMGWYRQAPGKERELVAAITHRDGSTYYADSVKGRFTISRDNAKNTVYLQMNSLKPEDTAVYYCAAETYVVWFTFDYWGQGTQVTVSS | high polyreactivity
QVQLVESGGGLVQAGGSLRLSCAASGSTFPLYAMGWYRQAPGKERELVAAITGGGGRTYYADSVKGRFTISRDNAKNTVYLQMNSLKPEETAVYYCAASKQRYYRWWTTPGYDYWGQGTQVTVSS | low polyreactivity
QVQLVESGGGLVQAGGSLRLSCAASGSTFPPNAMGWYRPAPGKERELVAVISNGGSNTRYADSVKGRFTISRDNAKNTVYLQMNSLKPEDTAVYYCAADYEYSGYGYWGQGTQVTVSS | high polyreactivity
QVQLVESGGGLVQAGGSLRLSCAASGSTFPPNAMGWYRQAPGKESELVAAISFSSGRTYYADSVKGRFTISRDNAKNTVYLQMNSLKPEDTAVYYCAADHGYWGQGTQVTVSS | low polyreactivity
QVQLVESGGGLVQAGGSLRLSCAASGSTFPQNAMGWTRQAPGKERELVAVISRSGGNPYYADSVKGRFTISRDIAKNSVYLQMNSLKPEDTAVYYCATRVKTTYDYWGQGTQVTVSS | low polyreactivity
QVQLVESGGGLVQAGGSLRLSCAASGSTFPQYAMGWYRQAPGKERELVAAISRSGGSTYYADSVKGRFTISRDNAKNTVYLQMNSLKPEDTAVYYCNVKSGFWFYPTMDYWGQGTQVTVSS | high polyreactivity
QVQLVESGGGLVQAGGSLRLSCAASGSTFPRNAMGWSRQAPGKERELVAAISFRGSTTYYADSVKGRFTISRDNAKNTVYLQMNSLKPEDTAVYYCAADGGRQARTYSRYYWGQGTQVTVSS | high polyreactivity
QVQLVESGGGLVQAGGSLRLSCAASGSTFPRNAMGWYRQAPGKERELVAAISSGGSTYYADSVKWRFTISRDNAKNTVYLQMNSLKPEDTAVYYCAARLYWPIIVVDLYGYDYWGQGTQVTVSS | low polyreactivity
QVQLVESGGGLVQAGGSLRLSCAASGSTFPRNAMGWYRQAPGKERELVATISTSGGSTYYADSVKGRFTISRDNAKNTVYLQMNSLKPEDTPVYYCAAVFWFRSLSGYIYDYWGQGTQVSVSS | low polyreactivity
QVQLVESGGGLVQAGGSLRLSCAASGSTFPRNAMGWYRQAPGKERELVATITSSGGGTYYADSVKGRFTISRDNAKNTVYLQMNSLKPEDTAVYYCNAAGPAGDAFDYWGQGTQVTVSS | low polyreactivity
QVQLVESGGGLVQAGGSLRLSCAASGSTFPRNAMGWYRQAPGKEWELVAAISGRGVRTYYADSVKGRFTISSDNAKNTVNFQMYSLKPEDTAVYYCAASRGKGVGLAYDYWGQGTQVTVSS | high polyreactivity
QVQLVESGGGLVQAGGSLRLSCAASGSTFPRYALGWYRQAPGKERELVAAISRSGGSTYYADSVKGRFTISRDNAKNTVYLQMNSLKPEDTAVYYCAARYERGSYKYDYWGQGTQVTVSS | high polyreactivity
QVQLVESGGGLVQAGGSLRLSCAASGSTFPRYAMGWYRQAPGKEREFVAVIWSGGSTYYADSVKGRFTISRDNAKNTVYLQMNSLKPEDTAVYYCAAEYHTLSKYSGYATHDYWGQGTQVTVSS | low polyreactivity
QVQLVESGGGLVQAGGSLRLSCAASGSTFPRYAMGWYRQAPGKERELVAAISKSGTITSYADSVKGRFTISRDNAKNTVYLQMNSLKPEDTAVYYCAKGRYWPYDYWGQGTQVTVSS | high polyreactivity
QVQLVESGGGLVQAGGSLRLSCAASGSTFPSNAMGWYRQAPGKERELVAAITFRGGRTYYADSVKGRFTISRDNAKNTVYLQMNSLKPEDTAVYYCAAERWWYTVRGYGYWGQGTQVTVSS | high polyreactivity
QVQLVESGGGLVQAGGSLRLSCAASGSTFPSYAMGWYRQAPGKERELVAAITNGGSTTYADSVKGRFTISRDNAKNTVYLQMNSLKPDDTAVYYCAARYYYYYYYIRRDYWGQGTQVTVSS | low polyreactivity
QVQLVESGGGLVQAGGSLRLSCAASGSTFPVNTMGWYRQAPGKERELVAAITKNGANTYYADSVKGRFTISRDNAKNTVYLQMNSLKPEDTADYYCAARYVYGKSYSRWLVELDYWGQGTQVTVSS | low polyreactivity
QVQLVESGGGLVQAGGSLRLSCAASGSTFPVYAMGWYRQAPGKERELVAAINSGVSTNYADSVKGRFTISRDNAKNTVYLQMNSLKPEDTAVYYCNTSYVGYPDLGINYEFDYWGQGTQVTVSS | low polyreactivity
QVQLVESGGGLVQAGGSLRLSCAASGSTFPVYAMGWYRQAPGKERELVATISYSGGSTNYADSVKGRFTISRDNAKNTVYLQMNSLIPEDTAVYYCAARKVNRGSGGYDSWGQGTQVTVSS | high polyreactivity
QVQLVESGGGLVQAGGSLRLSCAASGSTFPWYTMGWYRQAPGKERELVAAISFSGGRTYYADSVKGRFTISRDNAKNTVYLQMNSLKPEDTAVYYCAATVGAASRYYYWGQGTQVTVSS | high polyreactivity

Sequence | polyreactivity (PSR sort gate)
QVQLVESGGGLVQAGGSLRLSCAASGSTFPYNAKGWYRQAPGKERELVAAIDYSGGSTYADSVKGRFTISRDNAKNTVYLQMNSLKPEDTAVYYCAYCRVVVYDVSGDDEDYDYWRQGTQVTVSS | low polyreactivity
QVQLVESGGGLVQAGGSLRLSCAASGSTFPYNTMGWYRQAPGKERDFVAAITGDGGTTYYADSVKGRFTISRDNAQNTVYLQMNSLKQEDTAVYYCAVPYPAEGYGGDYWGQGSQVTVSS | low polyreactivity
QVQLVESGGGLVQAGGSLRLSCAASGSTFPYYAMGRYRQAPGKERELVAAISQNGGSTYYADSVKGRFTISRDNAKNTVYLQMNSLKPEDTAVYYCNADGVGGEYRLSGYDYWGQGTQVTVSS | low polyreactivity
QVQLVESGGGLVQAGGSLRLSCAASGSTFPYYAMGWYRQAPGKERELVAAISGSGGTTYYADSVKGRFTISRDNAKNTVYLQMNILKPEDTAVYYCAAEASHYYYNAYPSYGGSDYWGQGTQVTVSS | low polyreactivity
QVQLVESGGGLVQAGGSLRLSCAASGSTFPYYAMGWYRQAPGKERELVAAITSGGSTYYADSVKGRFTISRDNAKNTVYLQMNSLKPEDTAVYYCAARYAPTLSVYRFYYWGQGTQVTVSS | high polyreactivity
QVQLVESGGGLVQAGGSLRLSCAASGSTFPYYAMGWYRQAPGKERELVAAITSSTGRTYYADSVKGRFTISRDNAKNTVYFQMNSLKPEDTAVYYCNAEVYSDPYNDHDYWGQGTQVTVSS | low polyreactivity
QVQLVESGGGLVQAGGSLRLSCAASGSTFPYYAMGWYRQAPGKEWDLVAAISASVGSTYYADSVKGRFTISRDNAKNTVYLQMNSLKPEDTAVYYCNRVRSSYVYVSRFDSWGQGNQVTVSS | high polyreactivity
QVQLVESGGGLVQAGGSLRLSCAASGSTFPYYARVWYRQEPGKETELVAAISSSGGSTYYADSVKGRFTISRDNAKNTVFLQMNSLKPEDPAVYYCAARRKFPYRHDYWGQGTLVTVSS | high polyreactivity
QVQLVESGGGLVQAGGSLRLSCAASGSTFPYYGMGWYRQAPGKERELVAAINSGGSTYYADSVKGRFTISRDNAKNTVYLQMNSLKPEDTAVYYCNAAYPEWYAYDYWGQGTQVTVSS | low polyreactivity
QVQLVESGGGLVQAGGSLRLSCAASGSTFPYYTMGWYRQAPGKERELVAAITWRGGRTYYADSVKGRFTISRDNAKNTVYLQMNSLKPEDTAVYYCAAVTWVHRYSRFHPFVAFDFWGQGTQVTVSS | high polyreactivity
QVQLVESGGGLVQAGGSLRLSCAASGSTFPYYVMGWYRQAPGKERELVAAISWSGASTYYADSVKGRFTISRDNAKNTVYLQMNSLKPEDTAVYYCNRPKWYDGDYWGQGTQVTVSS | high polyreactivity
QVQLVESGGGLVQAGGSLRLSCAASGSTFQFNFMGWYRQAPGKERELVAAITSGASTYYADSVKGRFTISRDNAMNTVYLQMNSLEPEDTAVYYCAVDYSFRYDYVQRYYYLGQGTQVTVSS | high polyreactivity
QVQLVESGGGLVQAGGSLRLSCAASGSTFQGYAMGWYGQAPGKERELVAAINYSGGSTYYADSVKGRFTISRDNAKNTVYLQMNSLKPEDTAVYFCAARWYAVRDDYIVRYDYWGQGTQVTVSS | high polyreactivity
QVQLVESGGGLVQAGGSLRLSCAASGSTFQGYAMGWYRQAPGKERELVAAISWNGGSTYYADSVKGRFTISRDNAKNTVYLQMNSLKPEDTAVYYCAAYSFAYRFNYWGQGTQVTVSS | high polyreactivity
QVQLVESGGGLVQAGGSLRLSCAASGSTFQGYAMGWYRQAPGKERELVSAISGSGGNTYYADSVKGRFTISRDNAKNTVYLQMNSLKPEVTAVYSCAAGHVRTDWRYGYWGQGTQVTVSS | low polyreactivity
QVQLVESGGGLVQAGGSLRLSCAASGSTFQINAMGWYRQAPGKEREFVAAITVSSGSTYYADSVKGRFTISRDNAKNTVYLQMNSLKPEDTAVYYCAAEFHWWYAGYDYGYWGQGTQVTVSS | low polyreactivity
QVQLVESGGGLVQAGGSLRLSCAASGSTFQINAMGWYRQAPGKERELVAAIDGGGDTYYADSVKGRFTISRDNAKNTVYLQMNTLKPEDTAVYYCAAERRIYYQDFNYWGQGTQVTVSS | low polyreactivity
QVQLVESGGGLVQAGGSLRLSCAASGSTFQINAMGWYRQAPGKERELVAAIDGGGDTYYADSVKGRFTISRDNAKYTVYLQMNSMKPEDTAVYYCAAERRIYYQDFNFWGQGTQVTVSS | low polyreactivity
QVQLVESGGGLVQAGGSLRLSCAASGSTFQIYTMGWYRQAPGKERELVAAITNGGGSTYYADSVKGRFTISRDNAKNTVYLQMNSLKPEDTAVYYCAAEQRYPLIILYDYWGQGTQVTVSS | low polyreactivity
QVQLVESGGGLVQAGGSLRLSCAASGSTFQLYAMGWYRPPPGTERELVAGISRDGSTYYADSVKARFSISRDNSKNTVYLQMNSLKPEDTAVYYCAAKYYGNKRDLYYWGQGTQVTVSS | low polyreactivity

Reference: the nanobody polyreactivity screen of Harvey et al. (2022)
